From IntAct's records for PubMed 16415179

B1: Transcriptional repressor p66-alpha (Homo sapiens), Q86YP4 (parent)
chain: MTEEACRTRSQKRALERDPTEDDVESKKIKMERGLLASDLNTDGDMRVTPEPGAGPTQGLLRATEATAMAMGRGEGLVGDGPVDMRTSHSDMKSERRPPSPDVIVLSDNEQPSSPRVNGLTTVALKETSTEALMKSSPEERERMIKQLKEELRLEEAKLVLLKKLRQSQIQKEATAQKPTGSVGSTVTTPPPLVRGTQNIPAGKPSLQTSSARMPGSVIPPPLVRGGQQASSKLGPQASSQVVMPPLVRGAQQIHSIRQHSSTGPPPLLLAPRASVPSVQIQGQRIIQQGLIRVANVPNTSLLVNIPQPTPASLKGTTATSAQANSTPTSVASVVTSAESPASRQAAAKLALRKQLEKTLLEIPPPKPPAPEMNFLPSAANNEFIYLVGLEEVVQNLLETQGRMSAATVLSREPYMCAQCKTDFTCRWREEKSGAIMCENCMTTNQKKALKVEHTSRLKAAFVKALQQEQEIEQRLLQQGTAPAQAKAEPTAAPHPVLKQVIKPRRKLAFRSGEARDWSNGAVLQASSQLSRGSATTPRGVLHTFSPSPKLQNSASATALVSRTGRHSERTVSAGKGSATSNWKKTPLSTGGTLAFVSPSLAVHKSSSAVDRQREYLLDMIPPRSIPQSATWK

Variants of: B1
Conditions: with mbd2_human MBD2, Q9UBB5
mbd2_human MBD2, Q9UBB5, sequence (Q9UBB5 whole entry): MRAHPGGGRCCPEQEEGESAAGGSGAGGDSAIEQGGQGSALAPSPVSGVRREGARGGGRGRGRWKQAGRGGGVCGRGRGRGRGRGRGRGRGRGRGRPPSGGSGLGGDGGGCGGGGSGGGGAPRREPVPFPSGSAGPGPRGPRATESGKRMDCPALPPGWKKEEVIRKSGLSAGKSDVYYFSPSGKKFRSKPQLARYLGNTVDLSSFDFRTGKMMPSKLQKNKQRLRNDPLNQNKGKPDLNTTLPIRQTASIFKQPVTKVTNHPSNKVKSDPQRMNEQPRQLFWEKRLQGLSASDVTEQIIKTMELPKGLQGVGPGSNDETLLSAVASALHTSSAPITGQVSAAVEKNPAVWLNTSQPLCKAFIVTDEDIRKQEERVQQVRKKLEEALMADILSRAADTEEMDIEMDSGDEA

effect of a mutation on the interaction	Variant
decreasing interaction	K149R
